US7657380

target: T1, human CD30 (commercial, conjugated to digoxigenin) (human, UniProt P28908 19-379, limits assumed, conjugated to digoxigenin (DIG)); experiment: AlphaScreen competition
T1 sequence (looked up): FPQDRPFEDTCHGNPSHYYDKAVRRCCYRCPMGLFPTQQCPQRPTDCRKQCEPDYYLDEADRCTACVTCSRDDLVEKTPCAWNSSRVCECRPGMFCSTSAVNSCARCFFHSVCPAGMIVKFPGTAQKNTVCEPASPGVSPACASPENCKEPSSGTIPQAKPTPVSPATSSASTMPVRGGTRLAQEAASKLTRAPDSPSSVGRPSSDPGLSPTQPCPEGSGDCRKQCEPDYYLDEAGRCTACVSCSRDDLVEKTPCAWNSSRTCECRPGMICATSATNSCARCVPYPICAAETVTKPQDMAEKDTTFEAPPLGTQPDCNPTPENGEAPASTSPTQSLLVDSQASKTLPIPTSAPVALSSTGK

Row | Binder | Fold IC50 vs H3/L3
1 | AC10 H3/L3.4 (antibody, IgG1, name in Kabat numbering, V domains shown) VH: QIQLVQSGPEVKKPGASVKVSCKASGYTFTDYYITWVRQAPGQGLEWMGWIYPGSGNTKYNEKFQGRFVFSVDTSASTAYLQISSLKAEDTAVYFCANYGNYWFAYWGQGTLVTVSS VL: SIVLTQSPDSLAVSLGERATINCKASQSVDFDGDSYMNWYQQKPGQPPKVLIYAASNLESGIPARFSGSGSGTDFTLTINSLEAEDAATYYCQQSNEDPWTFGGGTKVEIK | 1.04 fold
2 | AC10 H3/L3.12 (antibody, IgG1, name in Kabat numbering, V domains shown) VH: QIQLVQSGPEVKKPGASVKVSCKASGYTFTDYYITWVRQAPGQGLEWMGWIYPGSGNTKYNEKFQGRFVFSVDTSASTAYLQISSLKAEDTAVYFCANYGNYWFAYWGQGTLVTVSS VL: DIVLTQSPDSLAVSLGERATINCKASQSVVFDGDSYMNWYQQKPGQPPKVLIYAASNLESGIPARFSGSGSGTDFTLTINSLEAEDAATYYCQQSNEDPWTFGGGTKVEIK | 1.15 fold
3 | AC10 H3/L3.5 (antibody, IgG1, name in Kabat numbering, V domains shown) VH: QIQLVQSGPEVKKPGASVKVSCKASGYTFTDYYITWVRQAPGQGLEWMGWIYPGSGNTKYNEKFQGRFVFSVDTSASTAYLQISSLKAEDTAVYFCANYGNYWFAYWGQGTLVTVSS VL: DIQLTQSPDSLAVSLGERATINCKASQSVDFDGDSYMNWYQQKPGQPPKVLIYAASNLESGIPARFSGSGSGTDFTLTINSLEAEDAATYYCQQSNEDPWTFGGGTKVEIK | 1.32 fold
4 | AC10 H3/L3.8 (antibody, IgG1, name in Kabat numbering, V domains shown) VH: QIQLVQSGPEVKKPGASVKVSCKASGYTFTDYYITWVRQAPGQGLEWMGWIYPGSGNTKYNEKFQGRFVFSVDTSASTAYLQISSLKAEDTAVYFCANYGNYWFAYWGQGTLVTVSS VL: DIVLTQSPDSLAVSLGERATINCKASQDVDFDGDSYMNWYQQKPGQPPKVLIYAASNLESGIPARFSGSGSGTDFTLTINSLEAEDAATYYCQQSNEDPWTFGGGTKVEIK | 0.94 fold
5 | AC10 H3/L3.9 (antibody, IgG1, name in Kabat numbering, V domains shown) VH: QIQLVQSGPEVKKPGASVKVSCKASGYTFTDYYITWVRQAPGQGLEWMGWIYPGSGNTKYNEKFQGRFVFSVDTSASTAYLQISSLKAEDTAVYFCANYGNYWFAYWGQGTLVTVSS VL: DIVLTQSPDSLAVSLGERATINCKASQSIDFDGDSYMNWYQQKPGQPPKVLIYAASNLESGIPARFSGSGSGTDFTLTINSLEAEDAATYYCQQSNEDPWTFGGGTKVEIK | 0.58 fold
6 | AC10 H3/L3.1 (antibody, IgG1, name in Kabat numbering, V domains shown) VH: QIQLVQSGPEVKKPGASVKVSCKASGYTFTDYYITWVRQAPGQGLEWMGWIYPGSGNTKYNEKFQGRFVFSVDTSASTAYLQISSLKAEDTAVYFCANYGNYWFAYWGQGTLVTVSS VL: AIVLTQSPDSLAVSLGERATINCKASQSVDFDGDSYMNWYQQKPGQPPKVLIYAASNLESGIPARFSGSGSGTDFTLTINSLEAEDAATYYCQQSNEDPWTFGGGTKVEIK | 1.3 fold
7 | AC10 H3/L3.2 (antibody, IgG1, name in Kabat numbering, V domains shown) VH: QIQLVQSGPEVKKPGASVKVSCKASGYTFTDYYITWVRQAPGQGLEWMGWIYPGSGNTKYNEKFQGRFVFSVDTSASTAYLQISSLKAEDTAVYFCANYGNYWFAYWGQGTLVTVSS VL: EIVLTQSPDSLAVSLGERATINCKASQSVDFDGDSYMNWYQQKPGQPPKVLIYAASNLESGIPARFSGSGSGTDFTLTINSLEAEDAATYYCQQSNEDPWTFGGGTKVEIK | 1.24 fold
8 | AC10 H3/L3.6 (antibody, IgG1, name in Kabat numbering, V domains shown) VH: QIQLVQSGPEVKKPGASVKVSCKASGYTFTDYYITWVRQAPGQGLEWMGWIYPGSGNTKYNEKFQGRFVFSVDTSASTAYLQISSLKAEDTAVYFCANYGNYWFAYWGQGTLVTVSS VL: DIVMTQSPDSLAVSLGERATINCKASQSVDFDGDSYMNWYQQKPGQPPKVLIYAASNLESGIPARFSGSGSGTDFTLTINSLEAEDAATYYCQQSNEDPWTFGGGTKVEIK | 1.64 fold
9 | AC10 H3/L3.3 (antibody, IgG1, name in Kabat numbering, V domains shown) VH: QIQLVQSGPEVKKPGASVKVSCKASGYTFTDYYITWVRQAPGQGLEWMGWIYPGSGNTKYNEKFQGRFVFSVDTSASTAYLQISSLKAEDTAVYFCANYGNYWFAYWGQGTLVTVSS VL: NIVLTQSPDSLAVSLGERATINCKASQSVDFDGDSYMNWYQQKPGQPPKVLIYAASNLESGIPARFSGSGSGTDFTLTINSLEAEDAATYYCQQSNEDPWTFGGGTKVEIK | 1.66 fold

target: T1, human CD30 (commercial, conjugated to …); experiment: AlphaScreen competition; remark: another data set of the same source

Row | Binder | Fold IC50 vs H3/L3
10 | AC10 H3.53/L3 (antibody, IgG1, name in Kabat numbering, V domains shown) VH: QIQLVQSGPEVKKPGASVKVSCKASGYTFTDYYITWVRQAPGQGLEWMGWIYPGSGNTKYNEKFQGRFVFSVDTSASTAYLQISSLKAEDTAVYFCAKYGNYWFAYWGQGTLVTVSS VL: DIVLTQSPDSLAVSLGERATINCKASQSVDFDGDSYMNWYQQKPGQPPKVLIYAASNLESGIPARFSGSGSGTDFTLTINSLEAEDAATYYCQQSNEDPWTFGGGTKVEIK | 0.02 fold
11 | AC10 H3.63/L3 (antibody, IgG1, name in Kabat numbering, V domains shown) VH: QIQLVQSGPEVKKPGASVKVSCKASGYTFTDYYITWVRQAPGQGLEWMGWIYPGSGNTKYNEKFQGRFVFSVDTSASTAYLQISSLKAEDTAVYFCANYGNYWFAFWGQGTLVTVSS VL: DIVLTQSPDSLAVSLGERATINCKASQSVDFDGDSYMNWYQQKPGQPPKVLIYAASNLESGIPARFSGSGSGTDFTLTINSLEAEDAATYYCQQSNEDPWTFGGGTKVEIK | 1.24 fold
12 | AC10 H3.60/L3 (antibody, IgG1, name in Kabat numbering, V domains shown) VH: QIQLVQSGPEVKKPGASVKVSCKASGYTFTDYYITWVRQAPGQGLEWMGWIYPGSGNTKYNEKFQGRFVFSVDTSASTAYLQISSLKAEDTAVYFCANYGNYWFASWGQGTLVTVSS VL: DIVLTQSPDSLAVSLGERATINCKASQSVDFDGDSYMNWYQQKPGQPPKVLIYAASNLESGIPARFSGSGSGTDFTLTINSLEAEDAATYYCQQSNEDPWTFGGGTKVEIK | 0.82 fold
13 | AC10 H3.59/L3 (antibody, IgG1, name in Kabat numbering, V domains shown) VH: QIQLVQSGPEVKKPGASVKVSCKASGYTFTDYYITWVRQAPGQGLEWMGWIYPGSGNTKYNEKFQGRFVFSVDTSASTAYLQISSLKAEDTAVYFCANYGNYWFAHWGQGTLVTVSS VL: DIVLTQSPDSLAVSLGERATINCKASQSVDFDGDSYMNWYQQKPGQPPKVLIYAASNLESGIPARFSGSGSGTDFTLTINSLEAEDAATYYCQQSNEDPWTFGGGTKVEIK | 1.05 fold
14 | AC10 H3.57/L3 (antibody, IgG1, name in Kabat numbering, V domains shown) VH: QIQLVQSGPEVKKPGASVKVSCKASGYTFTDYYITWVRQAPGQGLEWMGWIYPGSGNTKYNEKFQGRFVFSVDTSASTAYLQISSLKAEDTAVYFCANYGNYWFDYWGQGTLVTVSS VL: DIVLTQSPDSLAVSLGERATINCKASQSVDFDGDSYMNWYQQKPGQPPKVLIYAASNLESGIPARFSGSGSGTDFTLTINSLEAEDAATYYCQQSNEDPWTFGGGTKVEIK | 0.53 fold
15 | AC10 H3.62/L3 (antibody, IgG1, name in Kabat numbering, V domains shown) VH: QIQLVQSGPEVKKPGASVKVSCKASGYTFTDYYITWVRQAPGQGLEWMGWIYPGSGNTKYNEKFQGRFVFSVDTSASTAYLQISSLKAEDTAVYFCANYGNYWFALWGQGTLVTVSS VL: DIVLTQSPDSLAVSLGERATINCKASQSVDFDGDSYMNWYQQKPGQPPKVLIYAASNLESGIPARFSGSGSGTDFTLTINSLEAEDAATYYCQQSNEDPWTFGGGTKVEIK | 1.22 fold
16 | AC10 H3.58/L3 (antibody, IgG1, name in Kabat numbering, V domains shown) VH: QIQLVQSGPEVKKPGASVKVSCKASGYTFTDYYITWVRQAPGQGLEWMGWIYPGSGNTKYNEKFQGRFVFSVDTSASTAYLQISSLKAEDTAVYFCANYGNYWFQYWGQGTLVTVSS VL: DIVLTQSPDSLAVSLGERATINCKASQSVDFDGDSYMNWYQQKPGQPPKVLIYAASNLESGIPARFSGSGSGTDFTLTINSLEAEDAATYYCQQSNEDPWTFGGGTKVEIK | 0.16 fold
17 | AC10 H3.61/L3 (antibody, IgG1, name in Kabat numbering, V domains shown) VH: QIQLVQSGPEVKKPGASVKVSCKASGYTFTDYYITWVRQAPGQGLEWMGWIYPGSGNTKYNEKFQGRFVFSVDTSASTAYLQISSLKAEDTAVYFCANYGNYWFAVWGQGTLVTVSS VL: DIVLTQSPDSLAVSLGERATINCKASQSVDFDGDSYMNWYQQKPGQPPKVLIYAASNLESGIPARFSGSGSGTDFTLTINSLEAEDAATYYCQQSNEDPWTFGGGTKVEIK | 1.21 fold
18 | AC10 H3.54/L3 (antibody, IgG1, name in Kabat numbering, V domains shown) VH: QIQLVQSGPEVKKPGASVKVSCKASGYTFTDYYITWVRQAPGQGLEWMGWIYPGSGNTKYNEKFQGRFVFSVDTSASTAYLQISSLKAEDTAVYFCARYGNYWFAYWGQGTLVTVSS VL: DIVLTQSPDSLAVSLGERATINCKASQSVDFDGDSYMNWYQQKPGQPPKVLIYAASNLESGIPARFSGSGSGTDFTLTINSLEAEDAATYYCQQSNEDPWTFGGGTKVEIK | 0 fold
19 | AC10 H3.55/L3 (antibody, IgG1, name in Kabat numbering, V domains shown) VH: QIQLVQSGPEVKKPGASVKVSCKASGYTFTDYYITWVRQAPGQGLEWMGWIYPGSGNTKYNEKFQGRFVFSVDTSASTAYLQISSLKAEDTAVYFCATYGNYWFAYWGQGTLVTVSS VL: DIVLTQSPDSLAVSLGERATINCKASQSVDFDGDSYMNWYQQKPGQPPKVLIYAASNLESGIPARFSGSGSGTDFTLTINSLEAEDAATYYCQQSNEDPWTFGGGTKVEIK | 0.91 fold
20 | AC10 H3.64/L3 (antibody, IgG1, name in Kabat numbering, V domains shown) VH: QIQLVQSGPEVKKPGASVKVSCKASGYTFTDYYITWVRQAPGQGLEWMGWIYPGSGNTKYNEKFQGRFVFSVDTSASTAYLQISSLKAEDTAVYFCANYGNYWFAYWGRGTLVTVSS VL: DIVLTQSPDSLAVSLGERATINCKASQSVDFDGDSYMNWYQQKPGQPPKVLIYAASNLESGIPARFSGSGSGTDFTLTINSLEAEDAATYYCQQSNEDPWTFGGGTKVEIK | 1.28 fold
